# B1: HDV Ribozyme (parent)
# chain: GGCCGGCAUGGUCCCAGCCUCCUCGCUGGCGCCGGCUGGGCAACAUUCCGAGGGGACCGUCCCCUCGGUAAUGGCGAAUGGGACCCA
# Variants of: B1
# Assay: self-cleavage, relative activity (ratio to wild type); higher = more cleavage; co-transcriptional
row,Variant,self-cleavage
1,GGCCGGCAUAGUCCCAGCCUCCUCGCUGGCGCCGGCUGGGCCACAUUCCGAGGGGACCGUCCCCUCGGUAAUGGCGAAUGGGACCCA [G10A A42C],0.0875
2,GGCCGGCAUAGUCCCAGCCUCCUCGCUGGCGCCGGCUGGGCUACAUUCCGAGGGGACCGUCCCCUCGGUAAUGGCGAAUGGGACCCA [G10A A42U],0.244
3,GGCCGGCAUAGUCCCAGCCUCCUCGCUGGCGCCGGCUGGGCGACAUUCCGAGGGGACCGUCCCCUCGGUAAUGGCGAAUGGGACCCA [G10A A42G],0.251
4,GGCCGGCAUAGUCCCAGCCUCCUCGCUGGCGCCGGCUGGGCAACCUUCCGAGGGGACCGUCCCCUCGGUAAUGGCGAAUGGGACCCA [G10A A45C],0.219
5,GGCCGGCAUAGUCCCAGCCUCCUCGCUGGCGCCGGCUGGGCAACUUUCCGAGGGGACCGUCCCCUCGGUAAUGGCGAAUGGGACCCA [G10A A45U],0.534
6,GGCCGGCAUAGUCCCAGCCUCCUCGCUGGCGCCGGCUGGGCAACGUUCCGAGGGGACCGUCCCCUCGGUAAUGGCGAAUGGGACCCA [G10A A45G],0.598
7,GGCCGGCAUAGUCCCCGCCUCCUCGCUGGCGCCGGCUGGGCAACAUUCCGAGGGGACCGUCCCCUCGGUAAUGGCGAAUGGGACCCA [G10A A16C],0.867
8,GGCCGGCAUAGUCCCUGCCUCCUCGCUGGCGCCGGCUGGGCAACAUUCCGAGGGGACCGUCCCCUCGGUAAUGGCGAAUGGGACCCA [G10A A16U],0.929
9,GGCCGGCAUAGUCCCGGCCUCCUCGCUGGCGCCGGCUGGGCAACAUUCCGAGGGGACCGUCCCCUCGGUAAUGGCGAAUGGGACCCA [G10A A16G],0.584
10,GGCCGGCAUAGUCCCAGCCUCCUCGCUGGCGCCGGCUGGGCACCAUUCCGAGGGGACCGUCCCCUCGGUAAUGGCGAAUGGGACCCA [G10A A43C],0.176
11,GGCCGGCAUAGUCCCAGCCUCCUCGCUGGCGCCGGCUGGGCAACAUUCCGAGGGGUCCGUCCCCUCGGUAAUGGCGAAUGGGACCCA [G10A A56U],0.845
12,GGCCGGCAGGGUCCCAGCCUCCUCGCUGGCGCCGGCUGGGCAACAUUCCGAGGGGACCGUCCCCUCGGUAAUGGCGAAUGGUACCCA [U9G G82U],0.767
13,GGCCGGCAGGGUCCCAGCCUCCUCGCUGGCGCCGGCUUGGCAACAUUCCGAGGGGACCGUCCCCUCGGUAAUGGCGAAUGGGACCCA [U9G G38U],0
14,GGCCGGCAGGGUCCCAGCCUCCUCGCUGGCGCCGGCUCGGCAACAUUCCGAGGGGACCGUCCCCUCGGUAAUGGCGAAUGGGACCCA [U9G G38C],0.302
15,GGCCGGCAUAGUCCCAGCCUCCUCGCUGGCGCCGGCUGGGCAACAUUCCGAGGGGACCGUCCCCUCGGUUAUGGCGAAUGGGACCCA [G10A A70U],0.533
16,GGCCGGCAGGGUCCCAGCCUCCUCGCUGGCGCCGGCUGGGCAACAUUCCGAGGGGACCGUCCCCUCGGUAAUGGCGAACGGGACCCA [U9G U79C],0.748
17,GGCCGGCAGGGUCCCAGCCUCCUCGCUGGCGCCGGCUGGGCAACAUUCCGAGGGGACCGUCCCCUCGGUAAUGGCGAAGGGGACCCA [U9G U79G],0.923
18,GGCCGGCAGGGUCCCAGCCUCCUCGCUGGCGCCGGCUGGGCAACAUUCCGAGGGGACCGUCCCCUCGGCAAUGGCGAAUGGGACCCA [U9G U69C],1.25
19,GGCCGGCAGGGUCCCAGCCUCCUCGCUGGCGCCGGCUGGGCAACAUUCCGAGGGUACCGUCCCCUCGGUAAUGGCGAAUGGGACCCA [U9G G55U],1.05
20,GGCCGGCAGGGUCCCAGCCUCCUCGCUGGCGCCGGCUGGGCAACAUUCCGAGGGCACCGUCCCCUCGGUAAUGGCGAAUGGGACCCA [U9G G55C],0.665
21,GGCCGGCAGGGUCCCAGCCUCCUCGCUGGCGCCGGCUGCGCAACAUUCCGAGGGGACCGUCCCCUCGGUAAUGGCGAAUGGGACCCA [U9G G39C],0.196
22,GGCCGGCAGGGUCCCAGCCUCCUCGCUGGCGCCGGCUGUGCAACAUUCCGAGGGGACCGUCCCCUCGGUAAUGGCGAAUGGGACCCA [U9G G39U],0.807

row,Variant,self-cleavage
1,GGCCGGCAGGGUCCCAGCCUCCUCGCUGGCGCCGGCUGGGCAACAUUCCGAGGGGACCGUCCCCUCGGUAAUUGCGAAUGGGACCCA [U9G G73U],0.0831
2,GGCCGGCAGGGUCCCAGCCUCCUCGCUGGCGCCGACUGGGCAACAUUCCGAGGGGACCGUCCCCUCGGUAAUGGCGAAUGGGACCCA [U9G G35A],0.782
3,GGCCGGCAGGGUCCCAGCCUCCUCGCUGGCGCCGUCUGGGCAACAUUCCGAGGGGACCGUCCCCUCGGUAAUGGCGAAUGGGACCCA [U9G G35U],0.653
4,GGCCGGCAGGGUCCCAGCCUCCUCGCUGGCGCCGGCUGGGCAACAUUCCGAGGGGACCGACCCCUCGGUAAUGGCGAAUGGGACCCA [U9G U60A],0.831
5,GGCCGGCAGGGUCCCAGCCUCCUCGCUGGCGCCGGCUGGGCAACAUUCCGAGGGGACCGCCCCCUCGGUAAUGGCGAAUGGGACCCA [U9G U60C],0.748
6,GGCCGGCAUAGUCCCAGCCUCCUCGCUGGCGCCGGCUGGGCAACAUUCCGAGGGGACCGUCCCCUCGGUAAUGGCGGAUGGGACCCA [G10A A77G],0.53
7,GGCCGGCAGGGUCCCAGCCUCCUCGCUGGCGCCGGCUGGGCAACAGUCCGAGGGGACCGUCCCCUCGGUAAUGGCGAAUGGGACCCA [U9G U46G],0.646
8,GGCCGGCAGGGUCCCAGCCUCCUCGCUGGCGCCGGCUGGGCAACAAUCCGAGGGGACCGUCCCCUCGGUAAUGGCGAAUGGGACCCA [U9G U46A],0.312
9,GGCCGGCAUAGUCCCAGCCUCCUCGCUGGCGCCGGCUGGGCAACAUUCCGAGGGGACCGUCCCCUCGGUAAUGGCGAUUGGGACCCA [G10A A78U],0.0382
10,GGCCGGCAUAGUCCCAGCCUCCUCGCUGGCGCCGGCUGGGCAACAUUCCGAGGGGACCGUCCCCUCGGUAAUGGCGACUGGGACCCA [G10A A78C],0.113
11,GGCCGGCAGGGUCCCAGCCUCCUCGCAGGCGCCGGCUGGGCAACAUUCCGAGGGGACCGUCCCCUCGGUAAUGGCGAAUGGGACCCA [U9G U27A],0.437
12,GGCCGGCAGGGUCCCAGCCUCCUCGCGGGCGCCGGCUGGGCAACAUUCCGAGGGGACCGUCCCCUCGGUAAUGGCGAAUGGGACCCA [U9G U27G],0.935
13,GGCCGGCAGGGUCCCAGCCUCCUCGCCGGCGCCGGCUGGGCAACAUUCCGAGGGGACCGUCCCCUCGGUAAUGGCGAAUGGGACCCA [U9G U27C],0.68
14,GGCCGGCAGGGUCCCAGCCUCCUCGCUGGCGCCGGCUGGGCAACAUUCCCAGGGGACCGUCCCCUCGGUAAUGGCGAAUGGGACCCA [U9G G50C],1.01
15,GGCCGGCAGGGUCCCAGCCUCCACGCUGGCGCCGGCUGGGCAACAUUCCGAGGGGACCGUCCCCUCGGUAAUGGCGAAUGGGACCCA [U9G U23A],0.782
16,GGCCGGCAGGGUCCCAGCCUCCGCGCUGGCGCCGGCUGGGCAACAUUCCGAGGGGACCGUCCCCUCGGUAAUGGCGAAUGGGACCCA [U9G U23G],0.95
17,GGCCGGCAGGGUCCCAGCCUCCCCGCUGGCGCCGGCUGGGCAACAUUCCGAGGGGACCGUCCCCUCGGUAAUGGCGAAUGGGACCCA [U9G U23C],0.923
18,GGCCGGCAGGGUCCCAGCCUCCUCGCUGGCGCCGGCAGGGCAACAUUCCGAGGGGACCGUCCCCUCGGUAAUGGCGAAUGGGACCCA [U9G U37A],0
19,GGCCGGCAUAGUCCCAGCCUCCUCGCUGGCGCCGGCUGGGCAACAUUCCGGGGGGACCGUCCCCUCGGUAAUGGCGAAUGGGACCCA [G10A A51G],0.546
20,GGCCGGCAUAGUCCCAGCCUCCUCGCUGGCGCCGGCUGGGCAACAUUCCGCGGGGACCGUCCCCUCGGUAAUGGCGAAUGGGACCCA [G10A A51C],0.623
21,GGCCGGCAGGGUCCCAGCCUCCUCGCUGGCGCCGGCUGGGCAACAUUCCGAUGGGACCGUCCCCUCGGUAAUGGCGAAUGGGACCCA [U9G G52U],1.03
22,GGCCGGCAGGGUCCCAGCCUCCUCGCUGGCGCCGGCUGGGCAACAUUCCGAGGGGACCGUCCCCUCGGUAAUGGCGAAUUGGACCCA [U9G G80U],0.289

row,Variant,self-cleavage
1,GGCCGGCAGGGUCCCAGCCUCCUCGCUGGCGCCGGCUGGGCAACAUUCCGAGGGGACCGUCCCCUCGGUAAUGGCGAAUAGGACCCA [U9G G80A],0.516
2,GGCCGGCAGGGUCCCAGCCUCCUCGCUGGCGCCGGCUGGGCAACAUUCCGAGGGGACCAUCCCCUCGGUAAUGGCGAAUGGGACCCA [U9G G59A],1.16
3,GGCCGGCAGGGUCCCAGCCUCCUCGCUGGCGCCGGCUGGGCAACAUUCCGAGGGGACCUUCCCCUCGGUAAUGGCGAAUGGGACCCA [U9G G59U],1.06
4,GGCCGGCAGGGUCCCAGCCUCCUCGCUGGCGCCGGCUGGGCAACAUUCCGAGGGGACCGUCCCCUCGGUAAUGGCGAAUGCGACCCA [U9G G81C],0.443
5,GGCCGGCAGGGUCCCAGCCUCCUCGCUGGCGCCGGCUGGGCAACAUUCCGAGGGGACCGUCCCCUCGGUAAUGUCGAAUGGGACCCA [U9G G74U],0.415
6,GGCCGGCAGGGUCCCAGCCUCCUCGCUGGCGCCGGCUGGGCAACAUCCCGAGGGGACCGUCCCCUCGGUAAUGGCGAAUGGGACCCA [U9G U47C],1.04
7,GGCCGGCAUAGUCCCAGCCUCCUCGCUGGCGCCGGCUGGGCAACAUUCCGAGGGGACCGUCCCCUCGGUAAUGGCGAAUGGGGCCCA [G10A A83G],0.258
8,GGCCGGCAUAGUCCCAGCCUCCUCGCUGGCGCCGGCUGGGCAACAUUCCGAGGGGACCGUCCCCUCGGUAAUGGCGAAUGGGACCCU [G10A A87U],0.779
9,GGCCGGCAGGGGCCCAGCCUCCUCGCUGGCGCCGGCUGGGCAACAUUCCGAGGGGACCGUCCCCUCGGUAAUGGCGAAUGGGACCCA [U9G U12G],1.11
10,GGCCGGCAGGGACCCAGCCUCCUCGCUGGCGCCGGCUGGGCAACAUUCCGAGGGGACCGUCCCCUCGGUAAUGGCGAAUGGGACCCA [U9G U12A],1.11
11,GGCCGGCAGGGUCCCAGCCUCCUCGCUGGCGCCGGCUGGGCAACAUUCCGAGGGGACCGUCCCCUCUGUAAUGGCGAAUGGGACCCA [U9G G67U],1.25
12,GGCCGGCAGGGUCCCAGCCUCCUCGCUGGCGCCGGCUGGGCAACAUUCCGAGGGGACCGUCCCCCCGGUAAUGGCGAAUGGGACCCA [U9G U65C],1.17
13,GGCCGGCAGGGUCCCAGCCUCCUCGCUGGCGCCGGCUGGGCAACAUUCCGAGGGGACCGUCCCCACGGUAAUGGCGAAUGGGACCCA [U9G U65A],1.27
14,GGCCGGCAGGGUCCCAGCCUCCUCGCUGGCGCCGGCUGGGCAACAUUCCGAGGGGACCGUCCCCUCGGUAAUGGCUAAUGGGACCCA [U9G G76U],1.13
15,GGCCGGCAGGGUCCCAGCCUCCUCGCUGGCGCCGGCUGGGCAACAUUCCGAGGGGACCGUCCCCUCGGUAAUGGCAAAUGGGACCCA [U9G G76A],1.23
16,GGCCGGCAGGGUCCCAGCCUCCUCGCUGGCGCCGGCUGGGCAACAUUCCGAGGGGACCGUCCCCUCGGUAAUGGCCAAUGGGACCCA [U9G G76C],1.14
17,GGCCGGCAGGGUCCCAGCCACCUCGCUGGCGCCGGCUGGGCAACAUUCCGAGGGGACCGUCCCCUCGGUAAUGGCGAAUGGGACCCA [U9G U20A],0
18,GGCCGGCAGGGUCCCAGCCUCCUCGCUGGCGCCGGCUGGGCAACAUUCCGAGCGGACCGUCCCCUCGGUAAUGGCGAAUGGGACCCA [U9G G53C],0.939
19,GGCCGGCAUAGUCCCAGCCUCCUCGCUGGCGCCGGCUGGGCAACAUUCCGAGGGGACCGUCCCCUCGGUAAUGGCGAAUGGGACCCA [G10A],0.779
20,GGCCGGCAGGGUCCCAGCCUCCUCGCUGGCGCCGGCUGGGCAACAUUCCGAGGUGACCGUCCCCUCGGUAAUGGCGAAUGGGACCCA [U9G G54U],0.831

# — the RNAGym collection of RNA variant scans (doi:10.7554/elife.80360)
